Assay [1] addresses HLA-DQ2.5 on IHW09023 cells loaded with BC hordein peptide (human; barley). Nature of the assay: cell-based or functional assay.
Assay [2] has as its target HLA-DQ2.5 on IHW09023 cells loaded with gamma 2 gliadin peptide (human; wheat). Briefly: cell-based or functional assay.
Assay [3] has as its target HLA-DQ2.5 on IHW09023 cells loaded with gamma 1 gliadin peptide (human; wheat). Briefly: cell-based or functional assay.
Assay [4] has as its target HLA-DQ2.5 on IHW09023 cells loaded with gamma 4a gliadin peptide (human; wheat). Briefly: cell-based or functional assay.
Assay [5] has as its target HLA-DQ2.5 on IHW09023 cells loaded with omega1/2 gliadin peptide (human; wheat). Nature of the assay: cell-based or functional assay.
Assay [6] concerns the target HLA-DQ2.5 on IHW09023 cells loaded with gamma 3 gliadin peptide (human; wheat). Nature of the assay: cell-based or functional assay.
Assay [7] addresses HLA-DQ2.5 on IHW09023 cells loaded with 33 mer gliadin peptide (human; wheat). Briefly: cell-based or functional assay.
Assay [8] has as its target HLA-DQ2.5 on IHW09023 cells loaded with gamma 4d gliadin peptide (human; wheat). Nature of the assay: cell-based or functional assay.
A further assay deals with T1, HLA-DP on Ba/F3 cells (human, UniProt P20036 29-222; P04440 30-225, limits assumed).
T1 construct: whole, on cells; also called Ba/F3-HLA-DP
Nature of the assay: FACS, Ba/F3 cells; raw MFI. (In general: Flow cytometry measures light scatter and fluorescence of single cells or particles in a stream.)

For the next assay, the target named is T2, HLA-DR on Ba/F3 cells (human, UniProt P01903 26-216; P79483 30-227, limits assumed).
T2 construct: whole, on cells; also called Ba/F3-HLA-DR
T2 MHC II alpha: not shown
T2 MHC II beta: not shown
Nature of the assay: FACS, Ba/F3 cells; raw MFI.

The next assay addresses T3, HLA-DQ6.3 on Ba/F3 cells (human, UniProt P01920 33-230, limits assumed).
T3 construct: whole, on cells; also called Ba/F3-HLA-DQ6.3
T3 MHC II alpha: not shown
T3 MHC II beta: not shown
Briefly: FACS, Ba/F3 cells; raw MFI.

For a further assay, the target named is T4, HLA-DQ5.1 on Ba/F3 cells (human, limits assumed).
T4 construct: whole, on cells; also called Ba/F3-HLA-DQ5.1
T4 MHC II alpha: not shown
T4 MHC II beta: not shown
Nature of the assay: FACS, Ba/F3 cells; raw MFI.

Assay [9] concerns the target T5, HLA-DQ7.3 on Ba/F3 cells (human, UniProt P01909 24-216; P01920 33-230, limits assumed).
T5 construct: whole, on cells; also called Ba/F3-HLA-DQ7.3
T5 MHC II alpha: not shown
T5 MHC II beta: not shown
Nature of the assay: FACS, Ba/F3 cells; %MFI with IC17dK 0 and DQN0139bb 100.

Assay [10] addresses T6, HLA-DQ8 on Ba/F3 cells (human, UniProt P01909 24-216; P01920 33-230, limits assumed).
T6 construct: whole, on cells; also called Ba/F3-HLA-DQ8
T6 MHC II alpha: not shown
T6 MHC II beta: not shown
The assay is described as above.

The target in assay [11] is T7, HLA-DQ2.5 on Ba/F3 cells (human, UniProt P01909 24-216, limits assumed).
T7 construct: whole, on cells; MHC class II without a fused peptide; also called Ba/F3-HLA-DQ2.5
Described as above.

The target in assay [12] is T8, HLA-DQ7.5 on Ba/F3 cells (human, UniProt P01909 24-216; P01920 33-230, limits assumed).
T8 construct: whole, on cells; also called Ba/F3-HLA-DQ7.5
The description is as above.

The target in assay [13] is T9, HLA-DQ2.2 on Ba/F3 cells (human, UniProt P01909 24-216, limits assumed).
T9 construct: whole, on cells; also called Ba/F3-HLA-DQ2.2
T9 MHC II alpha: not shown
T9 MHC II beta: not shown
Described as above.

Assay [14] concerns the target T5, HLA-DQ7.3 on Ba/F3 cells. The assay is described as above.
Assay [15] addresses T6, HLA-DQ8 on Ba/F3 cells. The description is as above.
Assay [16] has as its target T7, HLA-DQ2.5 on Ba/F3 cells. The description is as above. The source holds these as a separate data set.
The target in assay [17] is T8, HLA-DQ7.5 on Ba/F3 cells. The assay is described as above. This is another data set of the same source.
Assay [18] addresses T9, HLA-DQ2.2 on Ba/F3 cells. The assay is described as above.

Numbering of substitutions follows the chain as printed. Where two headings read alike, the source gives them in different places.

T1 sequence (P20036 29-222 limits assumed, chain 1 of 4, other chains not shown): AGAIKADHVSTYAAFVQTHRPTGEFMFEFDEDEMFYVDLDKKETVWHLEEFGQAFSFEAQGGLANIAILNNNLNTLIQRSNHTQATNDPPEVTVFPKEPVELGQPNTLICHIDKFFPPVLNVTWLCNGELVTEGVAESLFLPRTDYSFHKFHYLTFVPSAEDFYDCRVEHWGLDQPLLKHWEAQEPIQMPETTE
T1 sequence (P04440 30-225 limits assumed, chain 2 of 4, other chains not shown): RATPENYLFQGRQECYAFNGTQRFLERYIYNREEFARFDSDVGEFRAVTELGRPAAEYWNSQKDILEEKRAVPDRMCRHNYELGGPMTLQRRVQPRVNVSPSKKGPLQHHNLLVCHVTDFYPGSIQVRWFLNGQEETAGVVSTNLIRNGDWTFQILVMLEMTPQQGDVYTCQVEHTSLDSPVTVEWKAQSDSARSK

B1: DQN0344H1013/L0620//DQN0385H1352/L0681-F6 (bispecific antibody)
heavy 1: QVQLVESGGGVVQPGRSLRLSCAASGFTFSSAYWMVWVRQAPGQGLEWMGAVYGGSDTTYYAKWTEGRFTISRDTSKNTLYLQMNSLRAEDTAVYYCAREPLNYYYYGELNVWGQGTLVTVSSASTKGPSVFPLAPSSKSTSGGTAALGCLVKDYFPEPVTVSWNSGALTSGVHTFPAVLKSSGLYSLSSVVTVPSSSLGTQTYICNVNHKPSNTKVDKRVEPKSCDKTHTCPPCPAPELRRGPSVFLFPPKPKDTLMISRTPEVTCVVVDVSHEDPEVKFNWYVDGVEVHNAKTKPREEQYNSTYRVVSVLTVLHQDWLNGKEYKCKVSNKALPAPIEKTISKAKGQPREPQVYTLPPSREEMTKNQVSLTCLVKGFYPSDIAVEWESNGQPENNYKTTPPYLDSDGSFFLYSKLTVDKSRWQEGNVFSCSVLHEALHAHYTREELSLSP
light 1: DIQMTQSPSSLSASVGDRVTITCQATENIYSGLAWYQQKPGKAPKLLIYYVSTLAYGIPARFSGSGSGTDFTLTISSLEPEDFAVYYCQTYEDVSAVTFGQGTKVEIKRTVAAPSVFIFPPSDEQLKSGTAEVVCLLNNFYPREAKVQWKVDNALQSGNSEESVTEQDSKDSTYSLSSTLTLSKADYEKHKVYACEVTHQGLSSPVTKSFNRGEC
heavy 2: QVQLVESGGGVVQPGRSLRLSCAASGFEFSEWYFMSWVRQAPGKGLEWVASIDTGSGSIDYAEWVEGRFTISRDNSKNTLYLQMNSLRAEDTAVYYCARDIGIDYNFWGPGTLVTVSSASTKGPSVFPLAPSSKSTSGGTAALGCLVEDYFPEPVTVSWNSGALTSGVHTFPAVLESSGLYSLSSVVTVPSSSLGTKTYICNVNHKPSNTKVDKRVEPKSCDKTHTCPPCPAPELRRGPSVFLFPPKPKDTLMISRTPEVTCVVVDVSHEDPEVKFNWYVDGVEVHNAKTKPREEQYNSTYRVVSVLTVLHQDWLNGKEYKCKVSNKALPAPIEKTISKAKGQPREPQVYTLPPSRKEMTKNQVSLTCLVKGFYPSDIAVEWESNGQPENNYKTTPPYLDSDGSFFLYSKLTVDKSRWQQGNVFSCSVLHEALHAHYTRKELSLSP
light 2: DIQMTQSPSSLSASVGDRVTITCQTTQSISSYLNWYQQKPGQPPKLLIYYASTKAEGIPARFSGSGLGTDFTLTISSLEPEDFAVYYCHYGISKVSFGQGTKVEIKRTVAAPSVFIFPPSDEQLKSGTAKVVCLLNNFYPREAKVQWKVDNALQSGNSKESVTEQDSKDSTYSLSSTLTLSKADYEKHKVYACEVTHQGLSSPVTKSFNRGEC
As for B1, the “IC50, BC hordein TCR, 250 nM BC hordein” value in [1] came out at 11.6 ng/mL. The “IC50, γ2 gliadin TCR, 250 nM γ2 gliadin” value in assay [2] came to 279 ng/mL. Further, the “IC50, γ1 gliadin TCR, 250 nM γ1 gliadin” value in assay [3] turned out to be 1.71 ng/mL. In addition, the “IC50, γ4a gliadin TCR, 25 µM γ4a gliadin” value in [4] came out at 1730 ng/mL. The “IC50, ω1 gliadin TCR, 25 µM ω1/2 gliadin” value in assay [5] amounted to 1.88 ng/mL. The “IC50, ω2 gliadin TCR, 250 nM ω1/2 gliadin” value in assay [5] was determined as 0.27 ng/mL. For the same molecule, the “IC50, γ3 gliadin TCR, 100 µM γ3 gliadin” value in assay [6] was found to be 3.15 ng/mL. In addition, in assay [7], the “IC50, α1a gliadin TCR, 250 nM 33mer gliadin” value amounted to 0.26 ng/mL. Also, in assay [7], the “IC50, α1b gliadin TCR, 250 nM 33mer gliadin” value is 1.13 ng/mL. Further, the “IC50, α2 gliadin TCR, 250 nM 33mer gliadin” value in assay [7] came to 0.38 ng/mL. Further, the “IC50, γ4d gliadin TCR, 100 µM γ4d gliadin” value in assay [8] was determined as 3.15 ng/mL. Also, the binding result with HLA-DP on Ba/F3 cells, in the assay with HLA-DR on Ba/F3 cells, in the assay with HLA-DQ6.3 on Ba/F3 cells, in the assay with HLA-DQ5.1 on Ba/F3 cells, with HLA-DQ7.3 on Ba/F3 cells [9] and with HLA-DQ8 on Ba/F3 cells [10] was “no binding (tested: 0.05 ug/mL)” throughout. Besides, the binding result with HLA-DQ2.5 on Ba/F3 cells [11], with HLA-DQ7.5 on Ba/F3 cells [12] and with HLA-DQ2.2 on Ba/F3 cells [13] was “no binding (tested: 0.05 ug/mL)” in each case.

B2: DQN0344H1013/L0620//DQN0385H1353/L0681-F6 (bispecific antibody)
heavy 1: B1 heavy 1
light 1: B1 light 1
heavy 2: B1 heavy 2 with E28T, S30A
light 2: B1 light 2
On to B2, for which, in [1], the “IC50, BC hordein TCR, 250 nM BC hordein” value amounted to 8.78 ng/mL. Further, in assay [2], the “IC50, γ2 gliadin TCR, 250 nM γ2 gliadin” value was 100 ng/mL. Also, in [3], the “IC50, γ1 gliadin TCR, 250 nM γ1 gliadin” value was determined as 0.56 ng/mL. For the same molecule, the “IC50, γ4a gliadin TCR, 25 µM γ4a gliadin” value in assay [4] is 1250 ng/mL. Besides, the “IC50, ω1 gliadin TCR, 25 µM ω1/2 gliadin” value in assay [5] worked out at 1.17 ng/mL. The “IC50, ω2 gliadin TCR, 250 nM ω1/2 gliadin” value in [5] is 0.17 ng/mL. Also, in [6], the “IC50, γ3 gliadin TCR, 100 µM γ3 gliadin” value came out at 2.29 ng/mL. The “IC50, α1a gliadin TCR, 250 nM 33mer gliadin” value in assay [7] worked out at 0.29 ng/mL. Moreover, in assay [7], the “IC50, α1b gliadin TCR, 250 nM 33mer gliadin” value came to 1.13 ng/mL. The “IC50, α2 gliadin TCR, 250 nM 33mer gliadin” value in assay [7] was 0.34 ng/mL. For the same molecule, the “IC50, γ4d gliadin TCR, 100 µM γ4d gliadin” value in assay [8] is 2.06 ng/mL. Moreover, the binding result in the assay with HLA-DP on Ba/F3 cells, with HLA-DR on Ba/F3 cells, in the assay with HLA-DQ6.3 on Ba/F3 cells, with HLA-DQ5.1 on Ba/F3 cells, in the assay with HLA-DQ7.3 on Ba/F3 cells [14] and with HLA-DQ8 on Ba/F3 cells [15] was “no binding (tested: 0.05 ug/mL)” each time. Also, the binding result with HLA-DQ2.5 on Ba/F3 cells [16], with HLA-DQ7.5 on Ba/F3 cells [17] and in the assay with HLA-DQ2.2 on Ba/F3 cells [18] was “no binding (tested: 0.05 ug/mL)” throughout.

The values above are taken from US20220089743A1 (Chugai, published 2022).
